Experimental data as given in paper PMC3495302, “The putative K^+ channel subunit AtKCO3 forms stable dimers in Arabidopsis” (Frontiers in Plant Science, 2012).

B1: AtKCO3::GFP (natural protein, Arabidopsis thaliana, UniProt Q9XFR0 1-260, looked up)
chain: MPMTPSEFKNRLLFGSLPRSSSDPTDLQFTEPNVPPSLFSLPEHNDDTATDMAPDQETEQSVSKSIARQALALLVVYLSLGVLIYWLTLDSDNAYQTHPVAVALYFFVVTFCGFLIVHFVVKIGWLDSFCFSVMMVTTVGFGDRAFNTWLGTFLAAVWLLVSTLAVARAFLFLADARADKRNRERAKKVLGESISISQFFAADIDNDGRLSLAEFAIYKLKQMEKITQEDFIQICNQFDKLDRTQSGRITLVDLTTATSV
notes: AtKCO3 of Arabidopsis thaliana, locus AT5G46360; fusion of about 60 kDa; Made with pBI-35S-10H-GFP-JFH1 (Hong et al., 1999); the vector's name may mean further tag residues (surmise); source: transgenic Arabidopsis (CaMV 35S promoter, p35S-KCO3::GFP), in leaf homogenate; not shown: GFP, C-terminal, kept
B2: AtKCO3 (natural protein, Arabidopsis thaliana, UniProt Q9XFR0 1-260, looked up)
chain: MPMTPSEFKNRLLFGSLPRSSSDPTDLQFTEPNVPPSLFSLPEHNDDTATDMAPDQETEQSVSKSIARQALALLVVYLSLGVLIYWLTLDSDNAYQTHPVAVALYFFVVTFCGFLIVHFVVKIGWLDSFCFSVMMVTTVGFGDRAFNTWLGTFLAAVWLLVSTLAVARAFLFLADARADKRNRERAKKVLGESISISQFFAADIDNDGRLSLAEFAIYKLKQMEKITQEDFIQICNQFDKLDRTQSGRITLVDLTTATSV
notes: AtKCO3, putative one-pore K+ channel subunit of Arabidopsis thaliana, locus AT5G46360; cDNA from seedlings of ecotype C24; calculated mass 29 kDa; The AtKCO3 cDNA without tag was put into pBinAR-Kan; also called wild-type protein; source: transgenic Arabidopsis (CaMV 35S promoter, p35S-KCO3), in leaf homogenate
B3: γTIP (natural protein, UniProt P25818 1-251, looked up)
chain: MPIRNIAIGRPDEATRPDALKAALAEFISTLIFVVAGSGSGMAFNKLTENGATTPSGLVAAAVAHAFGLFVAVSVGANISGGHVNPAVTFGAFIGGNITLLRGILYWIAQLLGSVVACLILKFATGGLAVPAFGLSAGVGVLNAFVFEIVMTFGLVYTVYATAIDPKNGSLGTIAPIAIGFIVGANILAGGAFSGASMNPAVAFGPAVVSWTWTNHWVYWAGPLVGGGIAGLIYEVFFINTTHEQLPTTDY
notes: gamma-TIP, tonoplast aquaporin of Arabidopsis; detected with an antibody against its C-terminal nine amino acids; also called tonoplast aquaporin γTIP; source: endogenous, Arabidopsis leaf homogenate or microsomes

Target: the molecule itself
Assay: velocity sucrose gradient centrifugation; leaf homogenate in 200 mM NaCl, 0.2% Triton X-100, 50 mM Tris-Cl pH 7.8; linear 5-25% sucrose gradient with 150 mM NaCl, 0.1% Triton X-100, 200,000 x g, 25 h, 4°C; fractions by SDS-PAGE and western blot; mass markers in a further gradient

Q: Which “stoichiometry N” value does the source give for B1 here?
A: 2

Q: B2 was tested. Which “stoichiometry N” value did it give?
A: 2

Q: With B3 as the protein, how does the “stoichiometry N” value read?
A: 4
